System: luciferase expression
Test: Firefly luciferase assay of HEK 293 cells transfected with riboswitch constructs, treated with guanosine or guanine
Type: cell-based
Conditions: for basal level luciferase expression in the absence of guanine (comparison in words): no guanine, compared with control or parent construct; for induction fold of luciferase activity (presence / absence of guanosine): 500 μM guanosine vs DMSO solvent control
Method: Transfection and aptamer ligand treatment: 3.5×10^4 HEK 293 cells were plated in a 96-well flat bottom plate the day before transfection. Plasmid DNA (500 ng) was added to a tube or a 96-well U-bottom plate. Separately, TransIT-293 reagent (Minis; 1.4 μl) was added to 50 μl opti-mem I media (Life Technologies), and allowed to sit for 5 minutes at room temperature (“RT”). Then, 50 μl of this diluted transfection reagent was added to the DNA, mixed, and incubated at RT for 20 min. Finally, 7 μl of this solution was added to a well of cells in a 96-well plate. Four hours after transfection, the media was aspirated, and new media was added with (i) DMSO (0.5%) or 500 μM guanosine; or (ii) NaOH (2 mM) as solvent control or 500 μM guanine. The induction fold was expressed as the quotient of luciferase activity obtained in the presence of aptamer ligand divided by the value obtained in the absence of the aptamer ligand.
Firefly luciferase assay of cultured cells: Twenty-four hours after media change, plates were removed from the incubator, and equilibrated to RT for several minutes on a lab bench, then aspirated. Glo-lysis buffer (Promega, […]) was added, and the plates allowed to remain at RT for at least 5 minutes. Then, the well contents were mixed by 50 μL trituration, and 20 μL of each sample was mixed with 20 μL of bright-glo reagent (Promega) that had been diluted to 10% in glo-lysis buffer. 96 wells were spaced on an opaque white 384-well plate. Following a 5-min incubation at RT, luminescence was measured using Tecan machine with 500 mSec read time. The luciferase activity was expressed as mean relative light unit (RLU)±S.D.

B1: mtSPA_ATA_Gua: SEQ ID NO: 13; xpt-guanine aptamer with 9 bp stem embedding AATAAA of mtSPA, 2 GC base pairs added (nucleic acid)
DNA: AAGGCCAAGAAGGGCGGAAAGATCGCCGTGTAAGGATCCAAGCTTATCGATACCGTCGACCTCGAGGGCCCAGATCTGCGGAAAAGGTATAATCGCGTGGATATGGCACGCAAGTTTCTACCGGGCACCGTAAATGTCCGACTACCTTTTATTGCGAAAGCAATAAAATATCTTTATTTTCATTACATCTGTGTGTTGGTTTTTTGTGTGTCTAGAAATAATTCTTACT
Question: Which results are given for B1?
Answer: induction fold of luciferase activity (presence / absence of guanine) (500 μM guanine vs NaOH solvent control): 1.7 fold; basal level luciferase expression in the absence of guanine (comparison in words): decreased

B2: DSE_Gua_2: SEQ ID NO: 6; xpt-guanine aptamer linked to 10 bp stem-loop embedding DSE (nucleic acid)
DNA: AAGGCCAAGAAGGGCGGAAAGATCGCCGTGTAAGCCATACCACATTTGTAGAGGTTTTACTTGCTTTAAAAAACCTCCCACACCTCCCCCTGAACCTGAAACATAAAATGAATGCAATTGTTGTTGTTAACTTGTTTATTGCAGCTTATAATGGTTACAAATAAAGCAATAGCATCACAAATTTCACAAATAAAGCATTTTTTTCACTGCATTCTAGTTGTGGTTTGTCCGAAAGGACAAACCAATAATCGCGTGGATATGGCACGCAAGTTTCTACCGGGCACCGTAAATGTCCGACTTGGTTTGAAACTCATCAATGTATCTTAACGCGT
Question: For B2, which “induction fold of luciferase activity (presence / absence of guanosine)” value is on record?
Answer: The value was 3.7 fold.

B3: SPA_ATA_Gua: SEQ ID NO: 10; xpt-guanine aptamer linked to stem-loop embedding AATAAA of synthetic polyA sequence (nucleic acid)
DNA: AAGGCCAAGAAGGGCGGAAAGATCGCCGTGTAAGGATCCAAGCTTATCGATACCGTCGACCTCGAGGGCCCAGATCTGCGGCAAAAGGTATAATCGCGTGGATATGGCACGCAAGTTTCTACCGGGCACCGTAAATGTCCGACTACCTTTTATTGGAAACAATAAAAGATCTTTATTTTCATTAGATCTGTGTGTTGGTTTTTTGTGTGTCTAGAAATAATTCTTACT
Question: Which “basal level luciferase expression in the absence of guanine (comparison in words)” value does the source give for B3 here?
Answer: Its value is “did not result in reduced luciferase activity”.

B4: ATA_Gua_1: luciferase construct, SEQ ID NO: 1; xpt-guanine aptamer linked to 9 bp effector stem-loop (GAAA loop) embedding AATAAA of SV40 early polyA (nucleic acid)
DNA: AAGGCCAAGAAGGGCGGAAAGATCGCCGTGTAAGCCATACCACATTTGTAGAGGTTTTACTTGCTTTAAAAAACCTCCCACACCTCCCCCTGAACCTGAAACATAAAATGAATGCAATTGTTGTTGTTAACTTGTTTATTGCAGCTTATAATGGTTACAAATAAAGCAATAGCATCACAAATTTCTAAAGGTATAATCGCGTGGATATGGCACGCAAGTTTCTACCGGGCACCGTAAATGTCCGACTACCTTTATTTCGAAAGAAATAAAGCATTTTTTTCACTGCATTCTAGTTGTGGTTTGTCCAAACTCATCAATGTATCTTAACGCGT
Question: Which results are given for B4?
Answer: induction fold of luciferase activity (presence / absence of guanosine): 6.7 fold; basal luciferase expression reduced by % versus control construct pFLuc (absence of guanine treatment, given as 'reduced by'): 45%

B5: DSE_Gua_4: SEQ ID NO: 8; xpt-guanine aptamer linked to 14 bp stem-loop embedding DSE (nucleic acid)
DNA: AAGGCCAAGAAGGGCGGAAAGATCGCCGTGTAAGCCATACCACATTTGTAGAGGTTTTACTTGCTTTAAAAAACCTCCCACACCTCCCCCTGAACCTGAAACATAAAATGAATGCAATTGTTGTTGTTAACTTGTTTATTGCAGCTTATAATGGTTACAAATAAAGCAATAGCATCACAAATTTCACAAATAAAGCATTTTTTTCACTGCATTCTAGTTGTGGTTTGTCCGAAAGGACAAACCACAACATAATCGCGTGGATATGGCACGCAAGTTTCTACCGGGCACCGTAAATGTCCGACTGTTGTGGAAACTCATCAATGTATCTTAACGCGT
Question: How did the “luciferase activity in the absence of aptamer ligand guanosine (comparison in words)” value (DMSO treated, compared among constructs and with pFLuc-SV40) turn out when B5 was run?
Answer: The value was “lowest”.

Question: What about the “basal level luciferase expression, % of the pFLuc control vector” value (absence of guanine treatment) of the same molecule?
Answer: The value was roughly 80%.

From patent US20200010836A1, “Regulation of Gene Expression by Aptamer-Mediated Accessibility of Polyadenylation Signals” (MEIRAGTX, UK II Limited, priority 2017, published 2020)
